# In patent publication US20120213774A1 (Hoffmann-La Roche, published 2012):
# T1: human IL33R (ST2) on human cells (human, UniProt Q01638 19-556)
# T1 sequence (looked up): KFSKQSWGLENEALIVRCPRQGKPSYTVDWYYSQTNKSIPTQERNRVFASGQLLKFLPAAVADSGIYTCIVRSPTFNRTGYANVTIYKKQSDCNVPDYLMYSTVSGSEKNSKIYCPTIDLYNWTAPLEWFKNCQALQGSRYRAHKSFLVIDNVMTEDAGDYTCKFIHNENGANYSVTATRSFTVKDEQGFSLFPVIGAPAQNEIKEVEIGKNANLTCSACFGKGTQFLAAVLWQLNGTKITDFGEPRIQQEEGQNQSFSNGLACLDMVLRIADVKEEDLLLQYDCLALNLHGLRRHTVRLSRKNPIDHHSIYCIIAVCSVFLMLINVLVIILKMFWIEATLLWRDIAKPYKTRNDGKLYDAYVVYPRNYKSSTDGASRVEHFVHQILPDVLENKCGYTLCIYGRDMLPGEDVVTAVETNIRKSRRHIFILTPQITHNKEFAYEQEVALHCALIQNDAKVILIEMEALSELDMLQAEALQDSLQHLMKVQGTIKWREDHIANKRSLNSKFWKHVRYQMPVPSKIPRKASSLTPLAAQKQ
# T2: recombinant human ST2/IL-1R4 Fc chimera (R&D Systems, Cat. No. 523-ST) (human, UniProt Q01638 19-328)
# T2 construct: Bought product; also called ST2/IL-1R4 protein; not shown: Fc part of the bought chimera (captured by anti-human IgG Fc)
# T2 sequence (looked up): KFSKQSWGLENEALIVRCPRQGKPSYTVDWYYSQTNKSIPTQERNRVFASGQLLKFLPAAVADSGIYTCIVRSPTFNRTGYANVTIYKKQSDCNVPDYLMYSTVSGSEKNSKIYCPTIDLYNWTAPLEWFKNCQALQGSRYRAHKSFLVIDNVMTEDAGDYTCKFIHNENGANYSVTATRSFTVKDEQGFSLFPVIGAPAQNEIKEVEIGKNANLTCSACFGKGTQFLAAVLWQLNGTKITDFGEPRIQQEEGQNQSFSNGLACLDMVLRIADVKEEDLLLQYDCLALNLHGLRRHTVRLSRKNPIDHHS
# T3: Monomeric human ST2 ECD with 6His Avitag (human, UniProt Q01638 19-328)
# T3 construct: extracellular domain; also called human ST2 ECD (His-Avitag monomer); not shown: 6His Avitag
# T3 sequence (looked up): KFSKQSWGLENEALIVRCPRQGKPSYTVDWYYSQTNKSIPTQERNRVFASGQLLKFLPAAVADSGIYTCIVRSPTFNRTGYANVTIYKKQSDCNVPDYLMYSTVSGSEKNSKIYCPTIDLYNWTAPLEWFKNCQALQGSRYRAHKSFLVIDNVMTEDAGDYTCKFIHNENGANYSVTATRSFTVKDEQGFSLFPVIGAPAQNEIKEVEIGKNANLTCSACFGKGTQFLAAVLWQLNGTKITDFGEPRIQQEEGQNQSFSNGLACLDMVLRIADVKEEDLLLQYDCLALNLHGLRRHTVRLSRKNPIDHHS
# What was measured:
# [1] = biological target: cynomolgus IL33R (ST2) on cynomolgus NK cells (cynomolgus); assay: cell-based or functional assay
# [2] = biological target: T1, human IL33R (ST2) on human cells; assay: cell-based or functional assay
# [3] = biological target: T2, recombinant human ST2/IL-1R4 Fc chimera …; assay: competition ELISA: antibody against biotinylated human IL33 on captured human ST2/IL-1R4 Fc chimera
# Protocol: (§1) The test was performed on 384 well MaxiSorp™ microtiter plates (Sigma-Aldrich, Nunc. DE, Cat. No. 464718) at RT. After each incubation step plates were washed 3 times with PBST (Phosphate Buffered Saline Tween®-20). […] Thereafter the wells were blocked with PBS supplemented with 0.1% Tween®-20 and 2% BSA (Roche Diagnostics GmbH, DE) for 1 h. […] Dilutions of purified antibodies or supernatants from hybridoma/B-cells in PBS with 0.5% BSA and 0.05% Tween®-20 were incubated with the receptor protein for 1 h. Biotinylated human IL33 (PeproTech, US, Cat No. 500-P261) was added for an additional hour to build up the complex. IL33 was biotinylated with Sulfo-NHS-LC-Biotin (Thermo Scientific Pierce, US, Cat. No. 21327) according to the manufacturer's protocol and purified using Zeba™ Desalt Spin Column (Thermo Scientific Pierce, US, Cat. No. 89889). Binding of the biotinylated IL33 to the complex was detected with 1:4000 diluted streptavidin HRP (Roche Diagnostics GmbH, DE, Cat. No. 11089153001). After 1 h the plates were washed 6 times with PBST and developed with freshly prepared BM blue POD substrate solution (BM blue: 3,3′-5,5′-Tetramethylbenzidine, Roche Diagnostics GmbH, DE, Cat. No. 11484281001) for 12 minutes at RT. Absorbance was measured at 370 nm. […]
# [4] = biological target: T1, human IL33R (ST2) on human cells; assay: cell-based or functional assay; remark: listed apart in the source
# [5] = biological target: T4, recombinant cyno ST2 Fc chimera (cynomolgus); assay: competition ELISA: antibody against biotinylated human IL33 on captured cyno ST2 Fc chimera
# T4 construct: also called cynomolgus ST2
# Protocol: as §1
# [6] = biological target: T3, Monomeric human ST2 ECD with 6His Avitag; assay: SPR (BIACORE T100, 37 C, pH 7.4), antibody captured by anti-human Fc, monomeric ST2 ECD in solution
# Protocol: (§2) Monomeric human ST2 ECD with 6His Avitag™ (Avidity, LLC, US) was added in various concentrations in solution. Association was measured by injection of ST2 ECD for a contact time of 120 sec. (single cycle-kinetic) at 37° C.; dissociation was measured by washing the chip surface with buffer for 1800 sec. at 37° C. For calculation of apparent KD and other kinetic parameters the Langmuir 1:1 model was used.
# [7] = biological target: T3, Monomeric human ST2 ECD with 6His Avitag; assay: SPR (BIACORE T100, 37 C, pH 7.4), antibody captured by anti-human Fc, monomeric ST2 ECD in solution, apparent KD, 1:1 model
# Protocol: as §2
"IC50, IFNγ release of cynomolgus NK cells stimulated with human IL33 and cynomolgus IL-12 [1] [nM]","IC50, GM-CSF release of KU812 basophil cells stimulated with IL33 [2] [nM]","IC50, IFN-γ secretion by human NK cells stimulated with IL33 and IL-12 [2] [nM]","IC50, IL-5 release of KU812 basophil cells stimulated with IL33 [2] [nM]","IC50, IL-5 release of human Th2 cells restimulated with IL33 [2] [nM]","IC50, IL-5 release of primary mast cells stimulated with IL33 [2] [nM]","IC50, IL-13 release of KU812 basophil cells stimulated with IL33 [2] [nM]","IC50, IL-13 release of human Th2 cells restimulated with IL33 [2] [nM]","IC50, IL-13 release of primary mast cells stimulated with IL33 [2] [nM]",IC50 [3] [nM],NFkB IC50 [4] [nM],IC50 [5] [nM],koff [6] [s⁻¹],kon [6] [M⁻¹ s⁻¹],t1/2 [6] [min],Kd [7] [nM],Binder,"IC50, eosinophil viability (IL33 dependent survival) [2] [nM]"
0.109,1.31,0.27,1.48,2.77,≤ 0.2,3.49,1.1,≤ 0.4,0.32,0.025,0.13,–,–,–,–,"Antibody ra170 (rabbit IgG1) (antibody, V domains shown, Rabbit monoclonal from B cell cloning; they are assigned to this molecule; also called Mab ra170; clone Ra170) VH: QSVEESGGRLVTPGTPLTLTCTVSGFSLSSHDMSWVRQAPGKGLEWIGYIWSDDNTYYASWAKGRFTISKTSTTVDLKITSPTTEDTATYFCARDQYRSSGVSDYDIWGPGTLVTVSS VL: AAVLTQTPSPVSAAVGGTVTISCQSSQSVGNNNDLAWYQQKPGQPPKILIYKASTLASGVPSRFEGSGSGTQFTLTISDVQCDDAATYYCLGGYDDDADNTFGGGTEVVVK",1.3
–,–,–,–,–,–,–,–,–,–,–,–,1.3e-05,4.6e+06,881,0.0027,"ra170 IgG4 SPLE (antibody, V domains shown) VH: QSVEESGGRLVTPGTPLTLTCTVSGFSLSSHDMSWVRQAPGKGLEWIGYIWSDDNTYYASWAKGRFTISKTSTTVDLKITSPTTEDTATYFCARDQYRSSGVSDYDIWGPGTLVTVSS VL: AAVLTQTPSPVSAAVGGTVTISCQSSQSVGNNNDLAWYQQKPGQPPKILIYKASTLASGVPSRFEGSGSGTQFTLTISDVQCDDAATYYCLGGYDDDADNTFGGGTEVVVKR",–
–,–,1.3,–,–,–,–,–,–,–,0.28,–,0.0051,4.9e+06,2,1.1,"humanized ra170 10.12 (antibody, V domains shown) VH: VQLVQSGAEVKKPGASVKVSCKASGFSLSSHDISWVRQAPGQGLEWMGYIWSDENTYYASWAQGRVTMTTDTSTSTAYMELRSLRSDDTAVYYCARDQYRSSGVSDYDIWGPGTLVTVSS VL: AAVMTQSPATLSVSPGERATLSCRSSQSVGNNNDLAWYQQKPGQAPRLLIYKASTRATGIPARFSGSGSGTEFTLTISSLQSEDFAVYYCLGGYDDDADNTFGGGTKVEIK",–
–,–,1.8,–,–,–,–,–,–,–,0.04,–,0.00043,3.1e+06,27,0.14,"humanized ra170 11.12 (antibody, V domains shown) VH: VQLVQSGAEVKKPGASVKVSCKASGFSLSSHDISWVRQAPGQGLEWMGYIWSDESTYYASWAQGRVTMTTDTSTSTAYMELRSLRSDDTAVYYCARDQYRSSGVSDYDIWGPGTLVTVSS VL: AAVMTQSPATLSVSPGERATLSCRSSQSVGNNNDLAWYQQKPGQAPRLLIYKASTRATGIPARFSGSGSGTEFTLTISSLQSEDFAVYYCLGGYDDDADNTFGGGTKVEIK",–
